Experimental data taken from US20260151494A1.

Assays:
[1] = biological target: human serum albumin (human) (UniProt P02768); test: primary ELISA of colonies, luminescence; negative control antigen
[2] = biological target: apical domain of CD71 (Screen 3: 'cynomolgus apical domain of human CD71') (cynomolgus (as paragraph 454 words it; ambiguous)); test: primary ELISA
[3] = biological target: apical domain of CD71 (Screen 3: 'cynomolgus apical domain of human CD71') (cynomolgus (as paragraph 454 words it; ambiguous)); test: primary ELISA, RLU ratio to HSA

human serum albumin (human), sequence (P02768 25-609 limits assumed): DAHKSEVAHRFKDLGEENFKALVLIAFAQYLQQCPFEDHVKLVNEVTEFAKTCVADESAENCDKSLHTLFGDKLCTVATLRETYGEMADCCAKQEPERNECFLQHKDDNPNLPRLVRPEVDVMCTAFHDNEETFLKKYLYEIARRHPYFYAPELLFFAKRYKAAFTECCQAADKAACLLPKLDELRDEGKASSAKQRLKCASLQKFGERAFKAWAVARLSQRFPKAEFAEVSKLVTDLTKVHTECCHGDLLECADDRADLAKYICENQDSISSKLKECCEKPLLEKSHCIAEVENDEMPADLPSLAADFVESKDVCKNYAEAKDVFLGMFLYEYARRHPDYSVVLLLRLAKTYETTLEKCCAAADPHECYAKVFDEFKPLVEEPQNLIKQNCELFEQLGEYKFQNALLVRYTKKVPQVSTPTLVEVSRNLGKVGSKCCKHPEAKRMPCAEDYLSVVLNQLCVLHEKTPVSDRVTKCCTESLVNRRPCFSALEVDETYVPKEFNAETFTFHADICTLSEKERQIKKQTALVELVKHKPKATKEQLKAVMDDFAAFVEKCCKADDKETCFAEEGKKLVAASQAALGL

Row | Binder | HSA, RLU [1] [RLU] | RLU [2] [RLU] | Apical domain:HSA [3]
1 | CD71-binding FN3 domain SEQ ID NO: 282 (designed binder) MSLPAPKNLVVSRVTEDSARLSWTAPDAAFDSFDIGYFELTWYGEAIVLTVPGSERSYDLTGLKPGTEYWVSIGGVKGGRFSEPLYARFTT | – | 4.85e+06 | 365
2 | CD71-binding FN3 domain SEQ ID NO: 279 (designed binder) MSLPAPKNLVVSRVTEDSARLSWTAPDAAFDSFFIGYLEPQPPGEAIHLYVPGSERSYDLTGLKPGTEYNVTIQGVKGGNWSAPLSAIFTT | – | 5.54e+06 | 680
3 | CD71-binding FN3 domain SEQ ID NO: 293 (designed binder) MSLPAPKNLVVSRVTEDSARLSWTAPDAAFDSFFIGYLEPQPPGEAIDLYVPGSERSYDLTGLKPGTEYNVTIQGVKGGFPSHPLVATFTT | – | 6.72e+06 | 605
4 | CD71-binding FN3 domain SEQ ID NO: 281 (designed binder) MSLPAPKNLVVSRVTEDSARLSWTAPDAAFDSFFIGYLEPQPPGEAIALYVPGSERSYDLTGLKPGTEYNVTIQGVKGGFPSEPLIANFTT | – | 6.93e+06 | 413
5 | CD71-binding FN3 domain SEQ ID NO: 294 (designed binder) MSLPAPKNLVVSRVTEDSARLSWTAPDAAFDSFFIGYLEPQPLGEAIHLFVPGSERSYDLTGLKPGTEYNVTIQGVKGGFPSEPLIASFTT | – | 7.4e+06 | 245
6 | CD71-binding FN3 domain SEQ ID NO: 290 (designed binder) MSLPAPKNLVVSRVTEDSARLSWTAPDAAFDSFFIGYLEPQPPGEAIHLYVPGSERSYDLTGLKPGTEYNVTIQGVKGGFPSEPLVATFTT | – | 6.87e+06 | 158
7 | CD71-binding FN3 domain SEQ ID NO: 283 (designed binder) MSLPAPKNLVVSRVTEDSARLSWTAPDAAFDSFEIAYQELSLWGEAIVLTVPGSERSYDLTGLKPGTEYYVHIGGVKGGIWSSPLSAYSTT | – | 6.14e+06 | 229
8 | CD71-binding FN3 domain SEQ ID NO: 275 (designed binder) MSLPAPKNLVVSRVTEDSARLSWTAPDAAFDSFEIGYFENLYLGEAIVLTVPGSERSYDLTGLKPGTEYWVQIGGVKGGNWSAPLVAEFTT | – | 5.44e+06 | 515
9 | CD71-binding FN3 domain SEQ ID NO: 285 (designed binder) MSLPAPKNLVVSRVTEDSARLSWTATDAAFDSFEIGYWENAYKGEAIVLTVPGSERSYDLTGLKPGTEYVVFIGGVKGGVWSVPLSAIFTT | – | 5.13e+06 | 368
10 | CD71-binding FN3 domain SEQ ID NO: 292 (designed binder) MSLPAPKNLVVSRVTEDSARLSWTAPDAAFDSFEIGYWENAYKGEAIVLTVPGSERSYDLTGLKPGTEYVVFIGGVKGGVWSVSLSAIFTT | – | 5.29e+06 | 355
11 | CD71-binding FN3 domain SEQ ID NO: 286 (designed binder) MSLPAPKNLVVSRVTEDSARLSWTAPDAAFDSFEIVYAEPVRFGEAIVLTVPGSERSYDLTGLKPGTEYWVQIGGVKGGEWSSPLSAIFTT | – | 5.31e+06 | 262
12 | CD71-binding FN3 domain SEQ ID NO: 276 (designed binder) MSLPAPKNLVVSRVTEDSARLSWTAPDAAFDSFEIAYFELDYVGEAIVLTVPGSERSYDLTGLKPGTEYWVQIGGVKGGTWSGPLSAIFTI | – | 4.54e+06 | 90
13 | CD71-binding FN3 domain SEQ ID NO: 280 (designed binder) MSLPAPKNLVVSRVTEDSARLSWTALDAAFDSFEIGYFENLYLGEAIVLTVPGSERSYDLTGLKPGTEYWVQIGGVKGGNWSAPLSAIFTT | – | 4.97e+06 | 160
14 | CD71-binding FN3 domain SEQ ID NO: 278 (designed binder) MSLPAPKNLVVSRVTEDSARLSWTAPDAAFDSFEIGYFENLYLGEAIVLTVPGSERSHDLTGLKPGTEYWVQIGGVKGGNWSAPLSAIFTT | – | 5.1e+06 | 641
15 | CD71-binding FN3 domain SEQ ID NO: 284 (designed binder) MSLPAPKNLVVSRVTEDSARLSWTAPDAAFDSFEIGYWENAYKGEAIVLTVPGSERSYDLTGLKPGTEYMVFIGGVKGGVWSVPLSAIFTT | – | 4.41e+06 | 363
16 | CD71-binding FN3 domain SEQ ID NO: 277 (designed binder) MSLPAPKNLVVSRVTEDSARLSWTAPDAAFDSFEIGYFELTYYGEAIVLTVPGSERSYDLTGLKPGTEYWVQIGGVKGGGFSEPLSAIFTT | – | 5.75e+06 | 383
17 | CD71-binding FN3 domain SEQ ID NO: 289 (designed binder) MSLPAPKNLVVSRVTEDSARLSWTAPDAAFDSFEIAYFEIAWLGEAIVLTVPGSERSYDLTGLKPGTEYWVQIGGVKGGAYSTPLSAIFTT | – | 5.2e+06 | 112

The remaining lines, values ahead:

Row | HSA, RLU [1] [RLU] | RLU [2] [RLU] | Apical domain:HSA [3] | Binder
18 | 3000 | – | – | CD71-binding FN3 domain of SEQ ID NO: 105 (designed binder, not shown: small tags and cut ends) MLPAPKNLVVSRVTEDSARLSWTAPDAAFDSFHIVYHEPRPSGEAIWLWVPGSERSYDLTGLKPGTEYEVGIVSVKGGDLSVPLSAIFTT
19 | 2500 | – | – | CD71-binding FN3 domain of SEQ ID NO: 110 (designed binder, not shown: small tags and cut ends) MLPAPKNLVVSRVTEDSARLSWTAPDAAFDSFHIVYHEPRPSGEAIYLEVPGSERSYDLTGLKPGTEYEVGIVSVKGGDLSVPLRAHFTT
20 | 11600 | – | – | CD71-binding FN3 domain of SEQ ID NO: 114 (designed binder, not shown: small tags and cut ends) MLPAPKNLVVSRVTEDSARLSWTAPDAAFDSFHIVYHEPRPSGEAIWLFVPGSERSYDLTGLKPGTEYEVGIVSVKGGDLSVPLSAIFTT
21 | – | 6.71e+06 | 474 | CD71-binding FN3 domain SEQ ID NO: 295 (designed binder) MSLPAPKNLVVSRVTEDSARLSWTAPDAAFDSFFIGYLEPQPPGEAIDLYVPGSERSYDLTGLKPGTEYNVTIQGVKGGFPSEPLVATFTT
22 | – | 4.82e+06 | 141 | CD71-binding FN3 domain SEQ ID NO: 296 (designed binder) MSLPAPKNLVVSRVTEDSARLSWTAPDAAFDSFDIGYFELTWYGEAIVLTVPGSERSYDLTGLKPGTEYWVSIGGVKGGIWSSPLSAIFTT
23 | 4550 | – | – | CD71-binding FN3 domain of SEQ ID NO: 102 (designed binder, not shown: small tags and cut ends) MLPAPKNLVVSRVTEDSARLSWTAPDAAFDSFDIGYTEYGGYGEAIILQVPGSERSYDLTGLKPGTEYWVLIQGVKGGGSSVPLVAYFTT
24 | 7750 | – | – | CD71-binding FN3 domain of SEQ ID NO: 100 (designed binder, not shown: small tags and cut ends) MLPAPKNLVVSRVTEDSARLSWTAPDAAFDSFYIAYAEPRPDGEAILLLVPGSERSYDLTGLKPGTEYSVLIHGVKGGLLSSPLVASFTT
25 | 2550 | – | – | CD71-binding FN3 domain of SEQ ID NO: 106 (designed binder, not shown: small tags and cut ends) MLPAPKNLVVSRVTEDSARLSWTAPDAVFDSFYIAYAEPRPDGEAIGLYVPGSERSYDLTGLKPGTEYSVLIHGVKGGLLSSPLTASFTT
26 | 3350 | – | – | CD71-binding FN3 domain of SEQ ID NO: 108 (designed binder, not shown: small tags and cut ends) MLPAPKNLVVSRVTEDSARLSWTAPDAAFDSFYIAYAEPRPDGEAILLQVPGSERSYDLTGLKPGTEYSVLIHGVKGGLLSSPLVAKFTT
27 | 18200 | – | – | CD71-binding FN3 domain of SEQ ID NO: 103 (designed binder, not shown: small tags and cut ends) MLPAPKNLVVSRVTEDSARLSWTAPDAAFDSFYIAYAEPRPDGEAIILGVPGSERSYDLTGLKPGTEYSVLIHGVKGGLLSSPLSAYSTT
28 | 2750 | – | – | CD71-binding FN3 domain of SEQ ID NO: 116 (designed binder, not shown: small tags and cut ends) MLPAPKNLVVSRVTEDSARLSWTAPDAAFDSFYIAYAEPRPDGEAILLLVPGSERSYDLTGLKPGTEYSVLIHGVKGGLLSSPLIAGFTT
29 | 3750 | – | – | CD71-binding FN3 domain of SEQ ID NO: 117 (designed binder, not shown: small tags and cut ends) MLPAPKNLVVSRVTEDSARLSWTAPDAAFDSFFIGYLEPQPPGEAIWLLVPGSERSYDLTGLKPGTEYNVTIQGVKGGFPSTPLSAIFTT
30 | 5200 | – | – | CD71-binding FN3 domain of SEQ ID NO: 115 (designed binder, not shown: small tags and cut ends) MLPAPKNLVVSRVTEDSARLSWTAPDAAFDSFFIGYLEPQPPGEAIDLYVPGSERSYDLTGLKPGIEYNVTIQGVKGGFPSLPLQAHFTT
31 | 3250 | – | – | CD71-binding FN3 domain of SEQ ID NO: 107 (designed binder, not shown: small tags and cut ends) MLPAPKNLVVSRVTEDSARLSWTAPDAAFDSFFIGYLEPQPPGEAIGLQVPGSERSYDLTGLKPGTEYNVTIQGVKGGFPSMPLSAIFTT
32 | 2650 | – | – | CD71-binding FN3 domain of SEQ ID NO: 112 (designed binder, not shown: small tags and cut ends) MLPAPKNLVVSRVTEDSARLSWTAPDAAFDSFFIGYLEPQPPGEAIDLWVPGSERSYDLTGLKPGTEYNVTIQGVKGGFPSMPLSAIFTT
33 | 3250 | – | – | CD71-binding FN3 domain of SEQ ID NO: 109 (designed binder, not shown: small tags and cut ends) MLPAPKNLVVSRVTEDSARLSWTAPDAAFDSFFIGYLEPQPPGEAIILHVPGSERSYDLTGLKPGTEYNVTIQGVKGGFPSLPLNANFTT
34 | 2800 | – | – | CD71-binding FN3 domain of SEQ ID NO: 113 (designed binder, not shown: small tags and cut ends) MLPAPKNLVVSRVTEDSARLSWTAPDAAFDSFFIGYLEPQPPGEAIYLLVPGSERSYDLTGLKPGTEYNVTIQGVKGGFPSDPLSAIFTT
35 | 2600 | – | – | CD71-binding FN3 domain of SEQ ID NO: 111 (designed binder, not shown: small tags and cut ends) MLPAPKNLVVSRVTEDSARLSWTAPDAAFDSFFIGYLEPQPPGEAISLWVPGSERSYDLTGLKPGTEYNVTIQGVKGGFPSIPLWAIFTT
36 | 29400 | – | – | CD71-binding FN3 domain of SEQ ID NO: 104 (designed binder, not shown: small tags and cut ends) MLPAPKNLVVSRVTEDSARLSWTAPDAAFDSFFIGYLEPQPPGEAIHLIVPGSERSYDLTGQKPGTEYNVTIQGVKGGFPSDPLVASFTT
37 | 4350 | – | – | CD71-binding FN3 domain of SEQ ID NO: 101 (designed binder, not shown: small tags and cut ends) MLPAPKNLVVSRVTEDSARLSWTAPDAAFDSFGIGYWERRWYGEAIVLTVPGSERSYDLTGLKPGTEYEVTIRGVKGGGYSGPLSAIFTT
